Data on two substances can be found in patent US8110187.

The target in assay [1] is Cytotoxic Lymphocyte Maturation Factor (CLMF) 75 kDa heterodimer (human) (UniProt P29460). The experiment in a line: 125I-CLMF binding to PHA-activated lymphoblasts, supernatant at 1/2 dilution; competitor: CLMF receptor on cells.
For assay [2], the target named is CLMF receptor on PHA-activated peripheral blood lymphoblasts (human). The experiment in a line: Scatchard plot analysis of equilibrium binding of 125I-CLMF to PHA-activated lymphoblasts.
CLMF receptor on PHA-activated peripheral blood lymphoblasts (human), sequence (Q99665 24-862, chain 2 of 2, other chains not shown): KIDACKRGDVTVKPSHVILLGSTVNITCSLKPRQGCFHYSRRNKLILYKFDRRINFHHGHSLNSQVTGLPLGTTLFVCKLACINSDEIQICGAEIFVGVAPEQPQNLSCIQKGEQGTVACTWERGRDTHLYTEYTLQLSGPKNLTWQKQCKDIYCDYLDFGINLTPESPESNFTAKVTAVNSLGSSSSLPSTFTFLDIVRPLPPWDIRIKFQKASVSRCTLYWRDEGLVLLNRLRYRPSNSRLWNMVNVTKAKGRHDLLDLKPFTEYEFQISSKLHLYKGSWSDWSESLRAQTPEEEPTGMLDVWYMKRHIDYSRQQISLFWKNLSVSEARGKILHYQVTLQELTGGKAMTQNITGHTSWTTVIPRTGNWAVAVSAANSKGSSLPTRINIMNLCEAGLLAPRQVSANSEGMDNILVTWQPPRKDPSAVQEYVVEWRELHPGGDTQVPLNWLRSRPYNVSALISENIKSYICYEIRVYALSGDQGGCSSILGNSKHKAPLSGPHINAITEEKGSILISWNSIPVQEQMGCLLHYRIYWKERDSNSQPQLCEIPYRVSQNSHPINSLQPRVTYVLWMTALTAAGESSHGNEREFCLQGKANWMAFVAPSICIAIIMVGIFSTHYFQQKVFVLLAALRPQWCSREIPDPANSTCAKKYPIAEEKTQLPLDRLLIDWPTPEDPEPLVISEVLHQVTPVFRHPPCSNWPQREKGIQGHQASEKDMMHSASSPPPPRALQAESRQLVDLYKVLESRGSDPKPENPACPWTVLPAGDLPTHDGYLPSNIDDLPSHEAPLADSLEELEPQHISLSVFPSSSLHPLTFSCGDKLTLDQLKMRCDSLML

The substance Control monoclonal antibody returned a % inhibition of 125I-CLMF binding to the lymphoblasts in assay [1] of 10%. “Cytotoxic Lymphocyte Maturation Factor (CLMF) 75 kDa heterodimer (from UniProt P29460 23-328; P29459 23-219) (ligand)”: the Kd – broadly, the concentration at which binding is half-saturated – in assay [2] worked out at 0.2 nM.
